For experiment [1], the target named is CD22-His tag (CD22 extracellular domain; ACRObiosystems Inc.) (UniProt P20273). Put plainly: ELISA, CD22-His tag coated at 100 ng/well, primary antibody 0.4 ㎍/㎖, absorbance at 450 nm. On the technique in general: ELISA stands for enzyme-linked immunosorbent assay.
For experiment [2], the target named is T1, CD22 on B-cell lymphoma U2932 cells (UniProt P20273 20-847, limits assumed).
T1 construct: whole, on cells; Endogenous CD22 on the U2932 cell line; also called CD22를 발현하는 비세포림프종 U2932; CD22를 발현하는 U2932 세포
T1 sequence (looked up): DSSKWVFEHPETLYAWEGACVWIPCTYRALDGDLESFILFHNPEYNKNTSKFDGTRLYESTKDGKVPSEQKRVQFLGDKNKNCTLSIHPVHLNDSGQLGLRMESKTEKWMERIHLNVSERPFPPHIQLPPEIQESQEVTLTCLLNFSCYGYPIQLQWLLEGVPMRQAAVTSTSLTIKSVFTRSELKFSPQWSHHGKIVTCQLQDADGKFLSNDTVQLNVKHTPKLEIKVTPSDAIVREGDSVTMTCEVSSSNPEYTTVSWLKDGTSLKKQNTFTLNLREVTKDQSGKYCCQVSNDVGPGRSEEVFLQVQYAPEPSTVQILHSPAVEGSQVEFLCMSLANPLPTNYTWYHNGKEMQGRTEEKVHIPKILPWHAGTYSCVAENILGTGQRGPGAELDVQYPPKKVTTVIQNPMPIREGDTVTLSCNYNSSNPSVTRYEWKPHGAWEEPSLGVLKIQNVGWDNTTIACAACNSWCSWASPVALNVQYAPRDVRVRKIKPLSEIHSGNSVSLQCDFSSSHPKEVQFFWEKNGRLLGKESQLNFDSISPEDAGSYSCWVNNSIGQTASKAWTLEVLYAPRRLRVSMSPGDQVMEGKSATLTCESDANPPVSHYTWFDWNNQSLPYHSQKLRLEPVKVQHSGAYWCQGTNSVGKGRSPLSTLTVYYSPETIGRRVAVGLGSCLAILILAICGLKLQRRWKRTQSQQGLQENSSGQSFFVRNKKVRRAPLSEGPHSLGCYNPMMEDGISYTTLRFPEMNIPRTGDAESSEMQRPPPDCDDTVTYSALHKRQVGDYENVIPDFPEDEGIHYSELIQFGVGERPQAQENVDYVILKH
Description: flow cytometry on U2932 cells, 1 ㎍ antibody per 1x10^6 cells, PE anti-mouse IgG secondary.

B1: 3F11 항체 (antibody, V domains shown)
VH: EVKLVESGGGLVQPGGSMKLSCVASGFTFSNYWMNWVRQSPEKGLEWVAEIRLKSNNYATHYAESVKGRFTISRDDSKSSVYLQMNNLRAEDTGIYYCTSIYYYGRDYAMDYWGQGTSVTVSS
VL: DIVMTQSPAIMSASLGERVTMTCTASSSVSSSYLHWYQQKPGSSPKLWIYSTSNLASGVPARFSGSGSGTSYSLTISSMEAEDAATYYCHQYHRSPYTFGGGTKLEIK
notes: Antibody from a mouse hybridoma, detected with an anti-mouse IgG secondary antibody
For the molecule B1, the OD450 측정값 in experiment [1] turned out to be 1.86. Further, in experiment [2], the binding result was “binds”.

B2: 7B5 항체 (antibody, V domains shown)
VH: EVQLEESGPGLVAPSQSLSITCTVSGFSLTRYDISWIRQPPGKGLEWLGVMWTGGGTNYNSAFMSRLSISRDNSKSQVFLKMNSLQTDDTAIYYCVRSYYGSAMDYWGQGTSVTVSS
VL: DIVMTQSSSYLSVSLGGRVTITCKASDHINNWLAWYQQKPGNAPRLLISGATSLETGVPSRFSGSGSGKDYTLSITSLQTEDVATYYCQQHWSTPFTFGSGTKLEIK
notes: as for B1
For the molecule B2, the OD450 측정값 in experiment [1] stood at 2.66. Besides, the binding result in experiment [2] is reported as “binds”.
